Assays:
[1] = target: Cynomolgus Sema3A (cynomolgus); assay: SPR (GLM sensorchip), antibody captured on Human Fab Binder, Sema3A as analyte, 1:1 Langmuir fit
[2] = target: Cynomolgus Sema3A (cynomolgus); assay: SPR (BioRad GLM chip), antibody captured on goat anti-human IgG, Sema3A as analyte, 1:1 Langmuir fit
[3] = target: T1, Human semaphorin 3A (Sema3A) (human, UniProt Q14563 21-771); assay: SPR (GLM sensorchip), antibody captured on Human Fab Binder, Sema3A as analyte, 1:1 Langmuir fit
T1 construct: also called human Sema3A; HuSema3A
T1 sequence: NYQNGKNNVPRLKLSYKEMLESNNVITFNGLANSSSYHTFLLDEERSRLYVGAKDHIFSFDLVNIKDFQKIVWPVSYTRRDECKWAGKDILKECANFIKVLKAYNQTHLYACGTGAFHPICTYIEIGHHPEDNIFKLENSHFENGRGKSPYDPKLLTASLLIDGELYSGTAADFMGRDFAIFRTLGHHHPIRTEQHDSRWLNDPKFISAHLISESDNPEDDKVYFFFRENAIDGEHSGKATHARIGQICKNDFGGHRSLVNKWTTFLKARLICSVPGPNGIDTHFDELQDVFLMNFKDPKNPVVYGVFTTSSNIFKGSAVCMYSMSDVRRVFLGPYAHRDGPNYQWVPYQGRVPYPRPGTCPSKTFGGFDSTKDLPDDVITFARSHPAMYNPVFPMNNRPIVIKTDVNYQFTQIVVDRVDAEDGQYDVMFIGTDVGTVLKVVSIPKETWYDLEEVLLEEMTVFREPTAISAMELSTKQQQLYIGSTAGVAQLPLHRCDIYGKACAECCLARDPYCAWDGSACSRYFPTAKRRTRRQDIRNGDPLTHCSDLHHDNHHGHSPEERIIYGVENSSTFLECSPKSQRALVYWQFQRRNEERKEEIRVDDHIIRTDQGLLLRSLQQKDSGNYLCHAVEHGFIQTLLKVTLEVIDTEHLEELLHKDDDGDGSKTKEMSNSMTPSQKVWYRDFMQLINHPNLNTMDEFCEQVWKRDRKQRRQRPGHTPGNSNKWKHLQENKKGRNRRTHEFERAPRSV
Description: (§1) The running buffer for this experiment and all dilutions (except where stated) were done in PBS-T-EDTA with 0.01% Tween20 [100 ul of 100% Tween20 was added to 2L of PBS-T-EDTA to make final Tween 20 concentration of 0.01%]. The GLM sensorchip was normalized and pre-conditioned as per the manufacturer's recommendations. The sensorchip was activated with equal mixture of EDC/s-NHS in the horizontal direction for 300 sec at a flow rate of 30 μl/min and immobilized with Human Fab Binder (10 μg/ml in 10 mM acetate pH 5.0) in the horizontal direction for 300 sec at a flowrate of 30 μl/min resulting in ˜6739-7414 RU of Human Fab Binder on the surface. The sensorchip was deactivated with 1M ethanolamine HCl in the horizontal direction for 300 sec at a flowrate of 30 μl/min. The sensorchip was stabilized with 18 sec of 10 mM glycine, pH 2.1 at a flowrate of 100 μl/min 1 time horizontally and 1 time vertically.
(§2) The inventors tested an exemplary antibody according to the invention (clone I). Said antibody (0.5 μg/ml) was captured on the Human Fab Binder surface vertically for 300 sec at a flowrate of 25 μl/min resulting ˜180 RU capture level. The baseline was stabilized by injecting PBS-T-EDTA for 60 sec at a flowrate of 40 μl/min horizontally. The analyte was injected horizontally over the captured antibody for 600 sec at a flowrate of 40 μl/min and a dissociation for 7200 sec. The concentrations of the analytes were 0 nM, 0.625 nM, 1.25 nM, 2.5 nM, 5 nM, and 10 nM. The surface was regenerated by injecting 10 mM glycine, pH 2.1 for 18 sec at a flowrate of 100 μl/min one time horizontally and one time vertically. PBS-T-EDTA was injected for 60 sec at a flowrate of 25 μl/min one time vertically.
(§3) The interspot (interactions with sensor surface) and blank (PBS-T-EDTA with 0.01% Tween20 or 0 nM analyte) were subtracted from the raw data.

[4] = target: T2, Mouse Sema3A (mouse, UniProt O08665 21-772, limits assumed); assay: as above
T2 construct: Construct not described
T2 sequence (looked up): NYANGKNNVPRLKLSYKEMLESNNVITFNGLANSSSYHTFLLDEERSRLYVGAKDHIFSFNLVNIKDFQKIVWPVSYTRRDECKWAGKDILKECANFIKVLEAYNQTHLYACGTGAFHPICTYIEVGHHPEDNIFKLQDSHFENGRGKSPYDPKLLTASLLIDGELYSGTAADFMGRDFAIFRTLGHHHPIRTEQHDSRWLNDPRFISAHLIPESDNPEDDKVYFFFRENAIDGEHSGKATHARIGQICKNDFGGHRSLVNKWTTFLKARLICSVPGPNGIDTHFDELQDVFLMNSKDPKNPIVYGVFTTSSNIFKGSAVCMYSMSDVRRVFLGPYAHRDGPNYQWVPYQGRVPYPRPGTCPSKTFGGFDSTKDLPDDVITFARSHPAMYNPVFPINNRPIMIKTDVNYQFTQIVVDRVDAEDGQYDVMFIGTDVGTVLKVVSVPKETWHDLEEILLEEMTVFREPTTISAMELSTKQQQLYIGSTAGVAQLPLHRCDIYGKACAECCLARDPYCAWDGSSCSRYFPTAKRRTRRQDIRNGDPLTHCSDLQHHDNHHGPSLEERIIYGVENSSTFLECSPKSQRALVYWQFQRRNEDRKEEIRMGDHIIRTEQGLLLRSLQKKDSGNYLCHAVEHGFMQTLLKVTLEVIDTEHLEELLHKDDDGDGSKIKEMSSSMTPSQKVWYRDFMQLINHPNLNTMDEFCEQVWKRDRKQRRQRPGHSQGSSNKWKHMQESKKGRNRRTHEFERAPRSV
Description: as §1, §2, §3

[5] = target: T3, Rat Sema3A (rat, UniProt Q63548 21-772, limits assumed); assay: as above
T3 construct: Construct not described
T3 sequence (looked up): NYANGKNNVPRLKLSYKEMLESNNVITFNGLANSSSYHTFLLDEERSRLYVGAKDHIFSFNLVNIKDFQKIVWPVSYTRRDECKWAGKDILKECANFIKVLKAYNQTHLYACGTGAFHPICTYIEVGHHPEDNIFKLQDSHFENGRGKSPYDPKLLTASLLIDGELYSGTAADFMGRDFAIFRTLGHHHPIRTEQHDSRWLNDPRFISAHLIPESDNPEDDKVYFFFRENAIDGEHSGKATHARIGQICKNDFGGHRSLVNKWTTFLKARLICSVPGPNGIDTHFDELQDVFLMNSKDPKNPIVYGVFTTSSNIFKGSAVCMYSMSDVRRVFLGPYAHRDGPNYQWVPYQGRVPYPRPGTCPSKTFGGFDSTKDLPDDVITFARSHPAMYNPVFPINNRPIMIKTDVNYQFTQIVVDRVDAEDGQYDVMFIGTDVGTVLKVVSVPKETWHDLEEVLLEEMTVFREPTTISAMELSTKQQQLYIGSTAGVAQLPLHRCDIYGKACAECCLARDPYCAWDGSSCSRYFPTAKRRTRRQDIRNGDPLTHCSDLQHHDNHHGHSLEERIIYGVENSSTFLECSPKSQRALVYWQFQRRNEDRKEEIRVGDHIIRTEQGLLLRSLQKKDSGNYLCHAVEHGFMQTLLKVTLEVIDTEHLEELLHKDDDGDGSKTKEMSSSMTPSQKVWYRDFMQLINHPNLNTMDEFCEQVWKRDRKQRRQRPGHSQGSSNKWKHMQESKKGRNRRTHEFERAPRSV
Description: as §1, §2, §3

[6] = target: T4, Rabbit Sema3A (rabbit, UniProt G1T285 21-770); assay: as above
T4 construct: Construct not described
T4 sequence: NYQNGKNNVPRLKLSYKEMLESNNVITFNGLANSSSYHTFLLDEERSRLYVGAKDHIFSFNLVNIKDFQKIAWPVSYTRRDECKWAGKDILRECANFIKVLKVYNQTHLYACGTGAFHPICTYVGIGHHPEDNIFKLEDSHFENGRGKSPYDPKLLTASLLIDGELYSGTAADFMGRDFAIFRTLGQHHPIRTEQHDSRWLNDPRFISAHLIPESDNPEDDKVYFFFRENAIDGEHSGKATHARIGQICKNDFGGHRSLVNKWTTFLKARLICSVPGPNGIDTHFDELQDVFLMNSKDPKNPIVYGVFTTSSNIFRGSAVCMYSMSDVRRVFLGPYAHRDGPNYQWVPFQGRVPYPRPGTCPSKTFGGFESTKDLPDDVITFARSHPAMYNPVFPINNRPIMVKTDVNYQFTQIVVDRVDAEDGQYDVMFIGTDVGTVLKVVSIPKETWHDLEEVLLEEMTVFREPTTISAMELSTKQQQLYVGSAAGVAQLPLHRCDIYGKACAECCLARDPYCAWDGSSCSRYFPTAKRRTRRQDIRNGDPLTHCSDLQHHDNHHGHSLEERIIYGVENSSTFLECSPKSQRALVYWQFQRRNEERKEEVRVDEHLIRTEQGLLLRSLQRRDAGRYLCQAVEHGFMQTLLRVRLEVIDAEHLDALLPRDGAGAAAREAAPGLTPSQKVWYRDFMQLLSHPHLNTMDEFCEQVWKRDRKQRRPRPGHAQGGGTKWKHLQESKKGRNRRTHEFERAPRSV
Description: as §1, §2, §3

[7] = target: T1, Human semaphorin 3A (Sema3A); assay: SPR (BioRad GLM chip), antibody captured on goat anti-human IgG, Sema3A as analyte, 1:1 Langmuir fit
[8] = target: T2, Mouse Sema3A; assay: as above
[9] = target: T3, Rat Sema3A; assay: as above
[10] = target: T4, Rabbit Sema3A; assay: as above
[11] = target: T1, Human semaphorin 3A (Sema3A); assay: SPR (BioRad GLM chip), antibody captured on anti-human Fab antibody, human Sema3A as analyte, 1:1 Langmuir fit
Description: A high surface density of anti-human Fab antibody (GE Healthcare) was immobilized over a GLM chip (BioRad) via direct amine coupling over 6 horizontal channels according to the BioRad manufacturer's manual.
The antibody of the invention (clone 1) and the Chiome antibodies were captured over the anti-human Fab antibody surface over 5 of 6 vertical channels with a minimum surface density for the kinetic binding assay. Human Sema3A was prepared in PBS-T-EDTA buffer (BioRad) at concentrations of 100, 50, 25, 12.5, 10, 6.25, 5, 2.5, 1.25, 0.625 and 0 nM. A PBS-T-EDTA buffer injection was used as a double reference for the kinetic data analysis. Each of the human Sema3A solutions and PBS-T-EDTA buffer were injected simultaneously over the 6 horizontal channels for 10 min at a flow rate of 40 μL/min followed by 2 hr dissociation phase. The surfaces were regenerated by an 18 sec injection of 10 mM pH 2.1 glycine HCl (GE Healthcare) at a flow rate of 100 μL/min followed by an injection of 60 sec PBS-T-EDTA at a flow rate of 25 μL/min.

B1: Antibody of the invention (clone I) (antibody, human IgG1, kappa, L234A L235A, V domains shown)
VH: EVQLVESGGGLVQPGGSLRLSCAASGFTFSSYYMSWVRQAPGKGLEWVSTIIKSGGYAYYPDSVKDRFTISRDNSKNTLYLQMSSLRAEDTAVYYCVRGGQGAMDYWGQGTTVTVSS
VL: EIVLTQSPATLSLSPGERATLSCRASQSIGDYLHWYQQKPGQAPRLLIKYASQSISGIPARFSGSGSGTDFTLTITSLEPEDFAVYYCQQGYSFPYTFGGGTKLEIKR
notes: also called clone 1; anti-Sema3A antibody of the invention
- Kd [1]: 0.028 nM
- Kd [2]: 0.035 nM
- Kd [3]: 0.029 nM
- Kd [4]: 0.027 nM
- Kd [5]: 0.027 nM
- Kd [6]: 0.042 nM
- Kd [7]: 0.0347 nM
- Kd [8]: 0.035 nM
- Kd [9]: 0.0235 nM
- Kd [10]: 0.0401 nM
- Kd [11]: 0.032 nM

Source: US20260078175A1 (Boehringer Ingelheim, published 2026)
